Consider one molecule from patent publication CN115368446A (HEFEI TIANGANG IMMUNOLOGY PHARMACEUTICAL CO LTD, dated 2022).

This assay concerns the target T1, CD79b蛋白 (on CHO-K1-CD79b细胞 / A375-CD79b细胞) (Homo sapiens (Human), UniProt P40259 29-229).
T1 sequence: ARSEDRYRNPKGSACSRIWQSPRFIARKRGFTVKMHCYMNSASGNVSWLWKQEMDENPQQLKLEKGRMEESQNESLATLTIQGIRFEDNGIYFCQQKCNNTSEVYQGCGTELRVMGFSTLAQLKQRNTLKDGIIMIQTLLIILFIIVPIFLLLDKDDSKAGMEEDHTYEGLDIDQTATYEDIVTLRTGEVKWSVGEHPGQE
In words: flow cytometry on CHO-K1-CD79b cells, Alexa-647 anti-human Fc detection. Background: A flow cytometer gives signals particle by particle.

B1: 抗体CD3×CD79b (bispecific antibody, human IgG1, kappa, L234A L235A)
scFv: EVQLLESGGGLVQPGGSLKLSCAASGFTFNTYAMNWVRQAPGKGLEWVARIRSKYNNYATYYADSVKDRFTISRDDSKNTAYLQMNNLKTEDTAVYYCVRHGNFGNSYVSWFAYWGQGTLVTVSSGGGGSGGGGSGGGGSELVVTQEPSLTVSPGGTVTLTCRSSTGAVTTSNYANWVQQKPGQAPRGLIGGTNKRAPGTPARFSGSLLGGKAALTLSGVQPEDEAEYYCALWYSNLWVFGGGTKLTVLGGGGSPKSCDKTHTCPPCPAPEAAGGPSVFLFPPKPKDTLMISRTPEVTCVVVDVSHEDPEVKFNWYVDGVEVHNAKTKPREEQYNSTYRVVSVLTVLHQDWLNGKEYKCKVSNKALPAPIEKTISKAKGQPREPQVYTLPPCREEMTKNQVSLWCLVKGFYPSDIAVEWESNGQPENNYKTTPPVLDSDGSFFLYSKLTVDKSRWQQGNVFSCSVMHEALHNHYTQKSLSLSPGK
heavy: EVQLVESGGGLVQPGGSLRLSCAASGYTFSSYWIEWVRQAPGKGLEWIGEILPGGGDTNYNEIFKGRATFSADTSKNTAYLQMNSLRAEDTAVYYCTRRVPIRLDYWGQGTLVTVSSASTKGPSVFPLAPSSKSTSGGTAALGCLVKDYFPEPVTVSWNSGALTSGVHTFPAVLQSSGLYSLSSVVTVPSSSLGTQTYICNVNHKPSNTKVDKKVEPKSCDKTHTCPPCPAPEAAGGPSVFLFPPKPKDTLMISRTPEVTCVVVDVSHEDPEVKFNWYVDGVEVHNAKTKPREEQYNSTYRVVSVLTVLHQDWLNGKEYKCKVSNKALPAPIEKTISKAKGQPREPQVCTLPPSREEMTKNQVSLSCAVKGFYPSDIAVEWESNGQPENNYKTTPPVLDSDGSFFLVSKLTVDKSRWQQGNVFSCSVMHEALHNHYTQKSLSLSPGK
light: DIQLTQSPSSLSASVGDRVTITCKASQSVDYEGDSFLNWYQQKPGKAPKLLIYAASNLESGVPSRFSGSGSGTDFTLTISSLQPEDFATYYCQQSNEDPLTFGQGTKVEIKRTVAAPSVFIFPPSDEQLKSGTASVVCLLNNFYPREAKVQWKVDNALQSGNSQESVTEQDSKDSTYSLSSTLTLSKADYEKHKVYACEVTHQGLSSPVTKSFNRGEC
notes: Three-chain knob-into-hole bispecific made in ExpiCHO cells and purified on Protein A; also called CD3×CD79b抗体; CD3×CD79b双特异抗体
For the molecule B1, the binding result is “binds”.
